Laboratory results reported in paper PMC8485325, “Penetrating the Blood-Brain Barrier with New Peptide–Porphyrin Conjugates Having anti-HIV Activity” (Bioconjugate Chemistry, 2021).
Ends that are not written are not given here.

Experiments:
bEnd.3 cell monolayers = test: In vitro BBB translocation assay (bEnd.3 transwell model)
Text: Assessment of PPC efficacy in BBB translocation was done in a transwell setup (Figure 4A) using bEnd.3 cell monolayers.[44] The bEnd.3 in vitro BBB model consists of a monolayer of cells expressing a range of essential BBB transporters, also bearing the low permeability characteristic of the BBB, suitable for this study.[44]−[46]
Figure 4 PPCs translocation across a bEnd.3 in vitro BBB model. (A) bEnd.3 in vitro BBB model transwell system. The insert, or apex, corresponds to the blood side, while the base (bottom chamber) corresponds to the brain side. (B) After formation of a monolayer, 10 μM of each conjugate was added to the apical side of the tissue culture inserts. After incubation for 24 h, samples from the basolateral side were collected, and the percentage of translocation of each conjugate (black) was calculated. FD4 permeability (gray) was measured to determine monolayer integrity post-PPCs translocation.
An in vitro BBB model consisting of endothelial cells growing on the apical side of a porous membrane was used.[46] bEnd.3 cells (ATTCC-CRL2299) were cultured as a monolayer on T-flasks in DMEM supplemented with 10% fetal bovine serum (FBS), 1% penicillin/streptomycin. Cells were grown in a humidified atmosphere of 5% CO2 at 37 °C (MCO-18AIC (UV), Sanyo, Japan) with the medium changed every other day. Cells were allowed to grow until confluence in a culture T-flask, and then carefully harvested with trypsin-EDTA and seeded (3500 cells/well) onto fibronectin-coated tissue culture 24-well inserts (transparent polyester membrane with 1.0 μm pores) (BD Falcon, USA). The medium was changed every other day for 10 days, after which cells were washed twice with 1× PBS and once with DMEM medium without phenol red. Next, conjugates diluted in DMEM without phenol red to a final concentration of 10 μM were added to the apical side of the in vitro BBB model (Figure 4A). Experiments were performed on different days using independently grown cell cultures.
The translocation of conjugates was determined by fluorescence intensity (λexc = 380 nm and λem = 625 nm for MP conjugates, and λexc = 380 nm and λem = 675 nm for PP conjugates). P3-CF and P5-CF, peptides labeled with 5(6)-Carboxyfluorescein (CF), were used as positive translocation controls (λexc = 492 nm and λem = 517 nm). After 24 h incubation, samples from the apical and basolateral side were collected and analyzed. Fluorescence was measured using a Varioskan Lux plate reader (Thermo Scientific, MA, USA). The percentage (%) of translocation was calculated using the following equation: [drawing 1] 1 where Fi is the recovered fluorescence intensity, Fcells is the recovered fluorescence intensity from cells without the conjugate, and Fconjugate is the fluorescence intensity of total peptide initially added to the transwell apical side.

bEnd.3 cells = test: Cell viability assay (CellTiter-Blue); type: cell-based, murine
Protocol: bEnd.3 cells were plated in fibronectin precoated 96-well flat-bottom clear black polystyrene plate (Corning, New York, USA) as previously described. Cells were then cultured in complete medium at 37 °C in a 5% CO2 atmosphere, with medium replaced every 2 days. […] Viability was evaluated by the CellTiter-Blue assay (Promega, Wisconsin, USA), based on resazurin reduction into highly fluorescent resorufin by metabolically active cells. By distinguishing metabolic from nonmetabolic cells, cytotoxicity can be indirectly determined. After incubation, cells were washed with PBS, pH 7.4, and 15 μL of CellTiterBlue reagent in 100 μL of complete medium was added to the cells and incubated for 1.5 h at 37 °C in 5% CO2. Fluorescence was measured at 590 nm, with excitation at 560 nm, using an Infinite F200 plate reader (Tecan, Switzerland). Complete medium and medium containing 0.25% Triton X-100 were used as positive and negative controls (100% and 0% viability), respectively. Cell viability (%) was determined using the following equation: [drawing 5] 5 where […] is the fluorescence emission of conjugate-treated cells, Fnontreated is the fluorescence emission of the control nontreated cells, and Fblank is the fluorescent emission of CellTiter reagent in complete medium without cells.

TZM-bl cells = type: cell-based
Protocol: TZM-bl Cell Viability Studies
The cytotoxic effects of each PPC on TZM-bl cell cultures were assessed to ensure that HIV inhibition was a result of the compounds effect on the virus and not on the host cells used in the assay. A resazurin reduction fluorometric assay was performed. Resazurin, the active compound in alamarBlue®, is a blue dye that can be reduced to a pink fluorescent intermediate, resorufin, as a result of cell metabolic activity.6 TZM-bl cells were seeded at 2x10^4 cells/well in tissue culture-treated 96-well microplates and incubated for 24 h. Cells were then incubated with serial dilutions (2-fold) of single peptide and porphyrins, or PPC, for 3 h, after which the mixture was replaced with fresh complete medium. Untreated cells (in the absence of peptide-porphyrin combinations) were used as a control. After 42 h, media was replaced with alamarBlue® reagent and incubated for an additional 3 h. Resazurin reduction was quantified by resorufin fluorescent emission intensity, measured in an Infinite M200 microplate reader. Fluorescence emission intensity was collected at 590 nm, using a fixed λ exc of 560 nm. Excitation and emission slits were 9 and 20 nm, respectively. Cell viability was calculated through the following formalism: […]
where I EI corresponds to the resorufin fluorescence emission intensity in the presence of EIs or combination, I control to the fluorescence emission intensity in the absence of EIs and I background to the background fluorescence emission from the non-reduced […]
P5, P4-MP, MP-L-P3 and P4-L-M - are presented here.
TZM-bl cell viability on the concentration range tested.
(1 picture or pasted object on this page, not shown here)
Figure S7. PPCs cytotoxic effects against TZM-bl cells. A resazurin reduction fluorometric assay, dependent on the cell metabolic activity, was used. Cell viability, normalized to the control in the absence of PPC, was measured against three concentrations of each individual PPC: MP-P3 (black), MP-P5 (white), P4-MP (red), MP-L-P3 (blue) and P4-L-MP (green).

| Substance | BBB translocation (in words) (bEnd.3 cell monolayers) | CC50 (bEnd.3 cells) | TZM-bl cell viability (in words) (TZM-bl cells) |
| --- | --- | --- | --- |
| P4-MP: mesoporphyrin IX coupled to the C-terminal Lys side chain of peptide P4 (AGILKRWK-amide) (AGILKRWK(mesoporphyrin IX)-NH2) | able to effectively pass the BBB | > 50 µM | did not alter significantly |
| MP-P5: mesoporphyrin IX coupled to the N-terminal amino group of peptide P5 (SGTQEEY-amide) ({mesoporphyrin IX}-SGTQEEY-NH2) | able to effectively pass the BBB | > 50 µM | did not alter significantly |
